{"source": "patent US20100080800A1", "about": "(AC IMMUNE S A, published 2010)", "binders": {"B1": {"name": "mouse monoclonal antibody ACI-01-Ab7C2 (antibody, V domains shown)", "VH": "EVQLVESGGGLVQPGGSLKLSCAASGFTFSSYGMSWVRQTPDKRLELVASINSNGGSTYYPDSVKGRFTISRDNAKNTLYLQMSSLKSEDTAMYYCASGDYWGQGSTLTVSS", "VL": "DVVMTQTPLSLPVSLGDQASISCRSSQSLVYSNGDTYLHWYLQKPGQSPKLLIYKVSNRFSGVPDRFSGSGSGTDFTLKISRVEAEDLGVYFCSQSTHVPWTFGGGTKLEIK", "notes": "Mouse IgG2b/kappa from hybridoma FP-12H3-C2 (DSM ACC2750); also called mC2; Mouse ACI-01-Ab-7-C2"}, "B2": {"name": "C2HuVH4/HuVK2 humanized antibody (antibody, human IgG4 S228P, kappa, V domains shown)", "VH": "EVQLVESGGGLVQPGGSLRLSCAASGFTFSSYGMSWVRQAPGKGLELVASINSNGGSTYYPDSVKGRFTISRDNAKNSLYLQMNSLRAEDTAVYYCASGDYWGQGTTVTVSS", "VL": "DIVMTQSPLSLPVTPGEPASISCRSSQSLVYSNGDTYLHWYLQKPGQSPQLLIYKVSNRFSGVPDRFSGSGSGTDFTLKISRVEAEDVGVYFCSQSTHVPWTFGQGTKVEIKR", "notes": "also called C2HuVHAF4 with C2HuVK2"}}, "key": {"[1]": {"target": "T1, soluble polymeric amyloid beta (UniProt P05067 672-713)", "T1 construct": "also called Oligomer; polymeric soluble amyloid", "T1 sequence (P05067 672-713)": "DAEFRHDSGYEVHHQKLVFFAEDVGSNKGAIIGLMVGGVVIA", "assay": "ELISA on plates coated with the amyloid preparation (55 µg/ml), AP-labelled anti-mouse IgG", "procedure": "In order to evaluate the specificity of mC2 to different stages of polymerized amyloid protein, monomeric, polymeric soluble and fibrillic amyloid, an ELISA coated with these different stages of polymeric beta-amyloid was performed (FIG. 9). Monomers were prepared according to a modified method published by (Klein, 2002), soluble polymeric amyloid beta according to (Barghorn et al., 2005), whereas fibers were performed by incubation of amyloid (Bachem, Switzerland) with a final concentration of 1 μg/μl in Tris/HCl pH 7.4 at 37° C. for 5 days followed by a centrifugation step (10,000 rpm for 5 minutes). Then amyloid polymers were coated on an ELISA plates with a final concentration of 55 μg/ml and binding affinity ELISA by using an anti-mouse IgG monoclonal antibody (Jackson) labelled with alkaline phosphate was performed."}, "[2]": {"target": "Amyloid Beta (antigen of the Amyloid Beta ELISA) (UniProt P05067 672-713, limits assumed)", "sequence (P05067 672-713 limits assumed)": "as the sequence (P05067 672-713) above", "assay": "Amyloid Beta ELISA, antibody purified from NS0 cells"}}, "data": [{"binder": "B1", "values": [{"measurement": "EC50 (read off the curve)", "setting": "[1]", "result": "~0.4", "unit": "µg/mL"}]}, {"binder": "B2", "values": [{"measurement": "EC50 (read off the curve)", "setting": "[2]", "result": "~4", "unit": "ng/well"}]}]}
